Measured values as given in article PMC8661717 (Protein Science : A Publication of the Protein Society, 2021).

T1: Pol α catalytic subunit (334-1462), as subunit of the truncated human primosome (human, UniProt P09884 334-1462)
T1 construct: also called DNA polymerase α; catalytic subunit of Pol α
T1 sequence (looked up): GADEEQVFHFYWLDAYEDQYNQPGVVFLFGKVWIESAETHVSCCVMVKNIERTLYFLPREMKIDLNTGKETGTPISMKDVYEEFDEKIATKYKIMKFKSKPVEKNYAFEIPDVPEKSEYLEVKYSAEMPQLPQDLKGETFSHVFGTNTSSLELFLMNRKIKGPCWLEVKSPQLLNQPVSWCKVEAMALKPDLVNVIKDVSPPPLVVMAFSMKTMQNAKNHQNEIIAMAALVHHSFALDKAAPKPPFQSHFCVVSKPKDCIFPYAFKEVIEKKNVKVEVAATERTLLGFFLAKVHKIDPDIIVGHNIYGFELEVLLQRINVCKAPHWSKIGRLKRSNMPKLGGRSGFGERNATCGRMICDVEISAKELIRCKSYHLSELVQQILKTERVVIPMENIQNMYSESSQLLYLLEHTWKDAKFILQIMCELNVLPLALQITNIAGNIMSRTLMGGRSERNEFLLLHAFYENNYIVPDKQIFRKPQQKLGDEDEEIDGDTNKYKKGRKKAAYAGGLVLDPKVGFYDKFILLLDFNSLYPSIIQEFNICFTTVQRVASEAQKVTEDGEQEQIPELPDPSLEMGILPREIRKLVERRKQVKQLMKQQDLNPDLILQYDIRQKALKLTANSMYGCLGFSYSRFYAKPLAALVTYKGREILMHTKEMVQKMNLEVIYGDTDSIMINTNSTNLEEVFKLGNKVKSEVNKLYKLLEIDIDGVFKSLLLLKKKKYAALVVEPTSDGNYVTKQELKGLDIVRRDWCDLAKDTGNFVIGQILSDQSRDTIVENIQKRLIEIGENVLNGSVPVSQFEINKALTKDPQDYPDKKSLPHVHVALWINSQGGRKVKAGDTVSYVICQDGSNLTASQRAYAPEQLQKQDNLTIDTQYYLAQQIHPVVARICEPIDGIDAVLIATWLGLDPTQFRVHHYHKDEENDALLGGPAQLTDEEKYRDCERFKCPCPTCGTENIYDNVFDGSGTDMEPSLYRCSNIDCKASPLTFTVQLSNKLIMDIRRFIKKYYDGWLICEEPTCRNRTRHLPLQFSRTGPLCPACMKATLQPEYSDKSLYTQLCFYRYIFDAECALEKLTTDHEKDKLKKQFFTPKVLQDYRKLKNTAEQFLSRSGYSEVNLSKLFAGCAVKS

B1: SARS-CoV nsp1 (13-127), His6-MBP tag cleaved (domain or fragment)
chain: HVQLSLPVLQVRDVLVRGFGDSVEEALSEAREHLKNGTCGLVELEKGVLPQLEQPYVFIKRSDALSTNHGHKVVELVAEMDGIQYGRSGITLGVLVPHVGETPIAYRNVLLRKNG
B2: His6-MBP-tagged SARS-CoV nsp1 middle domain (13-127) (domain or fragment)
chain: B1 chain
B3: His6-MBP-tagged SARS-CoV nonstructural protein 1 (nsp1), full length (natural protein)
chain: MESLVLGVNEKTHVQLSLPVLQVRDVLVRGFGDSVEEALSEAREHLKNGTCGLVELEKGVLPQLEQPYVFIKRSDALSTNHGHKVVELVAEMDGIQYGRSGITLGVLVPHVGETPIAYRNVLLRKNGNKGAGGHSYGIDLKSYDLGDELGTDPIEDYEQNWNTKHGSGALRELTRELNGG
B4: His6-MBP-tagged SARS-CoV-2 nsp1 middle domain (13-127) (domain or fragment)
chain: HVQLSLPVLQVRDVLVRGFGDSVEEVLSEARQHLKDGTCGLVEVEKGVLPQLEQPYVFIKRSDARTAPHGHVMVELVAELEGIQYGRSGETLGVLVPHVGEIPVAYRKVLLRKNG

What was measured:
Conditions in all cases: both partners purified
[1] = biological target: T2, Truncated human primosome (Pol α 334-1462; B subunit 149-598; PriS 1-420; PriL 1-509) (human, UniProt P09884 334-1462; Q14181 149-598; P49642 1-420; P49643 1-509); experiment: cryo-EM structure
T2 construct: also called truncated primosome; Pol α–primase

[2] = biological target: T1, Pol α catalytic subunit (334-1462), as …; experiment: cryo-EM structure
[3] = biological target: T2, Truncated human primosome (Pol α …); experiment: pull-down
[4] = biological target: T3, Full-length human primosome (DNA polymerase α–primase complex) (human, UniProt P09884 1-1462; Q14181 1-598; P49642 1-420; P49643 1-509); experiment: pull-down
T3 construct: also called Pol α–primase; full-length primosome
T3 sequence (Q14181 whole entry, chain 2 of 3): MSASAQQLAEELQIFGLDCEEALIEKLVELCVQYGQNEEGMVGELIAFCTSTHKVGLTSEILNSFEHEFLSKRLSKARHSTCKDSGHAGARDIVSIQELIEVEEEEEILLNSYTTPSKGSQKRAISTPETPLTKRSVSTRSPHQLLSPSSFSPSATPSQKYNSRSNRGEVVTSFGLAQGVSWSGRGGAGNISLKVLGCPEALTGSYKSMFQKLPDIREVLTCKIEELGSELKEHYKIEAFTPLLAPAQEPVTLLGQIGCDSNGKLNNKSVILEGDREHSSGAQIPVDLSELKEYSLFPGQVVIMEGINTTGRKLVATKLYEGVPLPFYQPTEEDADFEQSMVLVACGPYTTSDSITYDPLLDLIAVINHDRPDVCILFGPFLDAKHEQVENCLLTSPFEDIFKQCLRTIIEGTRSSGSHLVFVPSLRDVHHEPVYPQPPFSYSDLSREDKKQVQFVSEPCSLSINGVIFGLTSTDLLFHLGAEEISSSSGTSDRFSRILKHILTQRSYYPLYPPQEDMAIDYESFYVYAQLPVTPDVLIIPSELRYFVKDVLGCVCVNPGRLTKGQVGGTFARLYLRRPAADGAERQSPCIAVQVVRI
T3 sequence (P49642 whole entry, chain 3 of 3): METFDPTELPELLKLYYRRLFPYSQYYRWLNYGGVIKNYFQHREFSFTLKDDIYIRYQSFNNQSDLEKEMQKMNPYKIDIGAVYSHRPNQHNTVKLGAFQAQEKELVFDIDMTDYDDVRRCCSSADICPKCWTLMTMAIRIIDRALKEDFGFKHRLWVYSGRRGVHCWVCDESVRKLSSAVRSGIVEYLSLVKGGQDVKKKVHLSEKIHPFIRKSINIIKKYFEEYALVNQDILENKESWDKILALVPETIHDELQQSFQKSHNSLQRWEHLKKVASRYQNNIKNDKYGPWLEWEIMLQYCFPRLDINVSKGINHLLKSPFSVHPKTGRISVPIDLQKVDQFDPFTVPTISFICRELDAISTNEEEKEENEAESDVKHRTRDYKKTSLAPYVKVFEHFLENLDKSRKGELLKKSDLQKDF
T3 sequence (P49643 whole entry, chain 4 of 3): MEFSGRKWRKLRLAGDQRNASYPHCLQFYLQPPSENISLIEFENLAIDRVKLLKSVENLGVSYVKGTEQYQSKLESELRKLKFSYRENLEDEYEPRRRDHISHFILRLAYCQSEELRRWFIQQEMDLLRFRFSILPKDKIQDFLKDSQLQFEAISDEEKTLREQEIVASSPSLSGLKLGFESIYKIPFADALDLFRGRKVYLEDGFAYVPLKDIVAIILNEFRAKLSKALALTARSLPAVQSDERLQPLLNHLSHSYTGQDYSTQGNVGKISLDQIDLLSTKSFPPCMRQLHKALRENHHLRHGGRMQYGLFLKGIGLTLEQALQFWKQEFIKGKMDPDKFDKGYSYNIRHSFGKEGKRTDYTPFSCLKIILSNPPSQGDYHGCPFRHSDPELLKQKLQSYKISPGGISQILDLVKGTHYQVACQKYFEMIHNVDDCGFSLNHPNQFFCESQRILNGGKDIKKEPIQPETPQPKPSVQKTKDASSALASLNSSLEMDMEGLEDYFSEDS

T2 sequence (Q14181 149-598, chain 2 of 3): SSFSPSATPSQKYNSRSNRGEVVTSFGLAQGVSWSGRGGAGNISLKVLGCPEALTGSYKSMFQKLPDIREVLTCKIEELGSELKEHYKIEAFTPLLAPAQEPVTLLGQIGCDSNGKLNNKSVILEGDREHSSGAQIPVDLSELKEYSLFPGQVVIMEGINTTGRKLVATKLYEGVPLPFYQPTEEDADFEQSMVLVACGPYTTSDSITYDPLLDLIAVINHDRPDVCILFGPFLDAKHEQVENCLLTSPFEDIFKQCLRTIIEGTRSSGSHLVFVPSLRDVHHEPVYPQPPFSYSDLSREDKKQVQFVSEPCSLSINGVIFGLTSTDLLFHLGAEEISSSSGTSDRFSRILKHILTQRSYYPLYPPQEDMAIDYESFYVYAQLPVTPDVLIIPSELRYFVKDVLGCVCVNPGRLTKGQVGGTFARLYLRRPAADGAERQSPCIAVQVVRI
T2 sequence (P49642 whole entry, chain 3 of 3, the tested form may be a part): as the sequence (P49642 whole entry, chain 3 of 3) above
T2 sequence (P49643 whole entry, chain 4 of 3, the tested form may be a part): as the sequence (P49643 whole entry, chain 4 of 3) above

| Binder | binding result [1] | binding result [2] | binding result [3] | binding result [4] |
| --- | --- | --- | --- | --- |
| B1 | binds | binds | – | – |
| B2 | – | – | binds | – |
| B3 | – | – | binds | binds |
| B4 | – | – | binds | – |
